Several values for one entry are separate records, joined by “and”; a condition that tells them apart may be missing. Equal entries are not always repeated. Ends that are not written are not given here.
Legend:
HIV-1 (LAI) = assay: Fusion between chronically infected CEM cells and MT-2 cells; assay type: cell-based; conditions: separate tests
HIV-1 (NDK) = assay: as above; assay type: cell-based; conditions: separate tests
HIV-2 (ROD) = assay: as above; assay type: cell-based; conditions: separate tests
HIV = assay: Infection of HT-29 human colon cells through the GalCer receptor; assay type: cell-based
Method: The activity of MBPCs was evaluated on this alternative infection route as follows: HT-29 cells (5×10^5 cells) were incubated with MBPCs (5×10^-6 M) for 45 minutes and subsequently exposed to 100 TCID50 of HIV-1 (LAI), HIV-1 (NDK) or HIV-2 (ROD) for 1 hour at 37° C. The residual inoculum was inactivated by three successive trypsinations and infection was assessed by: i) direct measurement of HIV-1 p24^gag (for HIV-1 isolates) and RT activity (for HIV-1 and HIV-2 isolates) in the culture supernatants; ii) co-cultivation with human PBLs. The cells were treated with the MBPCs as follows: 1- none; 2- [GPGRAF]8 -MLC; 3- [GPGRAF]8 -MLCD; 4- [GPG(R)DAF]8 -MLC; 5- [GPGRAF]16 -MLC; 6- [[…]]4 -MLC; and 7- [[…]]4 -MLC, with all amino acids in L form unless noted otherwise. The results shown in FIG. 5A, which correspond to infection with HIV-1 (NDK), are representative of three separate experiments and the MBPC used is indicated by the number on the x-axis. The concentration of p24^gag (pg/ml) was measured during the co-culture experiment with PBLs (+++, >10 ng/ml 10 days post-infection; ++, >1 ng/ml 13 days post-infection; +, >1 ng/ml 16 days post-infection; -, no detectable p24^gag 1 month post-infection). Similar results were obtained with HIV-1 (LAI) and HIV-2 (ROD).

C57/BL6 black mice = assay: Immunogenicity in mice (serum ELISA for anti-MBPC3 antibody); assay type: in vivo, mouse
Method: The injection route was intraperitoneal. The blood samples were collected by sub-orbital eye punction. The blood samples were left for 1 hour at 37° C., then overnight at 4° C., and the supernatants (serum samples) thus obtained were separated from the pellets. Sera were tested by ELISA, looking for specific anti-MBPC3 antibody.
[…] After saturation with 400 μL of casein (5 g/100 ml), different serum dilutions were added for 2 hours at 37° C. The controls were sera from non-immunized rabbits and mice. After rinsing (5×), 50 μl of 1:5000 of peroxidase-labeled swine anti-rabbit IgG or anti-mouse IgG (Dakopatts, Copenhagen, Denmark) were added for 1 hour at 37° C. After further rinsing (5×), 100 μl of ortho-phenylenediamine were added for 30 min in the dark at room temperature. The reaction was stopped by adding 50 μl of 4N sulfuric acid, and optical density (OD) ratios were determined at 492/620 nm.

rabbits = assay: ELISA of sera from rabbits immunized with MBPC.1 or MBPC.2; assay type: in vivo, rabbit; conditions: for reactivity of sera from rabbits immunized with the MBPC (ELISA, FIG. 6): against MBPC.1, MBPC.2, Mono.1 and V3 Cons; for antibody response in rabbits: rabbit, in vivo
Method: Sera from rabbits immunized with either MBPC.1 or MBPC.2 were tested in ELISA for their ability to bind MBPC.1, MBPC.2, Mono.1 (the monomeric form of MBPC.1) and the North American/European consensus V3 sequence (V3 Cons, or Cs).
In another set of experiments, sera from rabbits immunized with either MBPC.1 or MBPC.2 were tested (at 1/100 and 1/1000 dilutions) against various concentrations of MBPC.1, MBPC.2 and V3 Cons. FIGS. 7A, 7B and 7C clearly indicate that sera from rabbits immunized with MBPC.2 reacted in a dose dependant manner against MBPC.2 and V3 Cons. No reactivity against MBPC.1 was detected.

CEM or C8166 cells = conditions: concentrations of 10^-7 to 10^-4 M; cultured continuously (15 days)
Method: An MTT assay, a colorimetric cell viability assay using 3-[4,5-Dimethylthiazol-2-yl] 2,5-diphenyltetrazolium bromide, was used to assess the effect of MBPCs on cell viability. CEM or C8166 cells (5×10^4) were cultured continuously (15 days) in the presence of various concentrations of MBPCs in the wells of 96-well microtiter plates in 200 μl final volume of RPMI 1640 medium supplemented with 5% fetal calf serum, 1% glutamine, 1% streptomycin-penicillin (available from Gibco of Irvine, Scotland) in a humidified atmosphere with 5% CO2. Every 3 to 4 days, an MTT assay was performed on 100 μl of cells suspension and MBPC were added to cell culture and the volume completed to 200 μl.

HIV-2 = assay: Infection of human PBLs; assay type: cell-based; conditions: MBPC 10^-5 M
Method: Peripheral blood lymphocytes (PBLs) were obtained from healthy donors, stimulated with phytohemagglutinin, and cultivated in RPMI 1640 containing 10% fetal calf serum and interleukin-2 (complete medium). Samples of 6×10^6 cells/ml were either treated or not treated with the indicated MBPC at a concentration of 10^-5 M and exposed to HIV-1 or HIV-2 (100 TCID50) for 1 hour at 37° C. in the continued presence of MBPCs. After thorough washing, PBLs were cultured in complete medium with 10^-5 M of the corresponding MBPC. The state of infection was assessed by determination of RT activity (for both HIV-1 and HIV-2 isolates) and HIV-1 p24^gag measurements (Coulter kit, cut-off 10 pg/ml) in the case of HIV-1 isolates 10 days post-infection. The MBPC treatment used were as follows: 1-none; 2- [GPGRAF]8 -MLC; 3-[[…]]4 -MLC; 4- [[…]]4 -MLC (a non-HIV related MBPC) (MLC indicates a core lysine structure). The results shown in FIGS. 2A-2C are representative of three separate experiments. The nature of the viral isolates used was checked by PCR (HIV-1 versus HIV-2 isolates) and RIPA for discriminating between HIV-1 (LAI) and HIV-1 (NDK).

Substance: (GPGRAF)8 -(K)4 -(K)2 -K-βA-OH [MBPC.3]
- block of fusion (HIV-1 (LAI)): able to block the fusion
- block of fusion (HIV-1 (NDK)): able to block the fusion
- block of fusion (HIV-2 (ROD)): able to block the fusion
- block of the infectivity of HIV on human colon cells (HIV): completely block
- titers of anti-GPGRAF antibodies (C57/BL6 black mice; mice injected): did not produce significant titers
- optical density (OD) ratio 492/620 nm (×10^3) (C57/BL6 black mice; plate 1, mouse serum 10^-2, coat 0.5 μg MBPC.3/ml): 382 and 381
- optical density (OD) ratio 492/620 nm (×10^3) (C57/BL6 black mice; plate 1, mouse serum 10^-2, coat 1 μg MBPC.3/ml): 444 and 419
- optical density (OD) ratio 492/620 nm (×10^3) (C57/BL6 black mice; plate 1, mouse serum 10^-2, coat 5 μg MBPC.3/ml): 1045 and 933
- optical density (OD) ratio 492/620 nm (×10^3) (C57/BL6 black mice; plate 1, mouse serum 10^-2, coat 10 μg MBPC.3/ml): 1162 and 1199
- optical density (OD) ratio 492/620 nm (×10^3) (C57/BL6 black mice; plate 1, mouse serum 10^-3, coat 0.5 μg MBPC.3/ml): 128 and 135
- optical density (OD) ratio 492/620 nm (×10^3) (C57/BL6 black mice; plate 1, mouse serum 10^-3, coat 1 μg MBPC.3/ml): 126 and 111
- optical density (OD) ratio 492/620 nm (×10^3) (C57/BL6 black mice; plate 1, mouse serum 10^-3, coat 5 μg MBPC.3/ml): 285 and 236
- optical density (OD) ratio 492/620 nm (×10^3) (C57/BL6 black mice; plate 1, mouse serum 10^-3, coat 10 μg MBPC.3/ml): 339 and 291
- optical density (OD) ratio 492/620 nm (×10^3) (C57/BL6 black mice; plate 1, mouse serum 10^-4, coat 0.5 μg MBPC.3/ml): 56 and 38
- optical density (OD) ratio 492/620 nm (×10^3) (C57/BL6 black mice; plate 1, mouse serum 10^-4, coat 1 μg MBPC.3/ml): 50 and 51
- optical density (OD) ratio 492/620 nm (×10^3) (C57/BL6 black mice; plate 1, mouse serum 10^-4, coat 5 μg MBPC.3/ml): 121 and 132
- optical density (OD) ratio 492/620 nm (×10^3) (C57/BL6 black mice; plate 1, mouse serum 10^-4, coat 10 μg MBPC.3/ml): 172 and 138
- optical density (OD) ratio 492/620 nm (×10^3) (C57/BL6 black mice; plate 2, mouse serum 10^-2, coat 1 μg MBPC.3/ml): 381 and 429
- optical density (OD) ratio 492/620 nm (×10^3) (C57/BL6 black mice; plate 2, mouse serum 10^-2, coat 5 μg MBPC.3/ml): 1514 and 1344
- optical density (OD) ratio 492/620 nm (×10^3) (C57/BL6 black mice; plate 2, mouse serum 10^-2, coat 10 μg MBPC.3/ml): 1540 and 1457
- optical density (OD) ratio 492/620 nm (×10^3) (C57/BL6 black mice; plate 2, mouse serum 10^-3, coat 0.5 μg MBPC.3/ml): 47 and 82
- optical density (OD) ratio 492/620 nm (×10^3) (C57/BL6 black mice; plate 2, mouse serum 10^-3, coat 1 μg MBPC.3/ml): 54 and 65
- optical density (OD) ratio 492/620 nm (×10^3) (C57/BL6 black mice; plate 2, mouse serum 10^-3, coat 5 μg MBPC.3/ml): 263 and 273
- optical density (OD) ratio 492/620 nm (×10^3) (C57/BL6 black mice; plate 2, mouse serum 10^-3, coat 10 μg MBPC.3/ml): 334 and 291
- optical density (OD) ratio 492/620 nm (×10^3) (C57/BL6 black mice; plate 2, mouse serum 10^-4, coat 1 μg MBPC.3/ml): 15 and 17
- optical density (OD) ratio 492/620 nm (×10^3) (C57/BL6 black mice; plate 2, mouse serum 10^-4, coat 5 μg MBPC.3/ml): 88 and 97
- optical density (OD) ratio 492/620 nm (×10^3) (C57/BL6 black mice; plate 2, mouse serum 10^-4, coat 10 μg MBPC.3/ml): 132 and 188
- optical density (OD) ratio 492/620 nm (×10^3) (C57/BL6 black mice; plate 3, mouse serum 10^-2, coat 0.5 μg MBPC.3/ml): 204 and 198
- optical density (OD) ratio 492/620 nm (×10^3) (C57/BL6 black mice; plate 3, mouse serum 10^-2, coat 1 μg MBPC.3/ml): 241 and 200
- optical density (OD) ratio 492/620 nm (×10^3) (C57/BL6 black mice; plate 3, mouse serum 10^-2, coat 5 μg MBPC.3/ml): 636 and 630
- optical density (OD) ratio 492/620 nm (×10^3) (C57/BL6 black mice; plate 3, mouse serum 10^-2, coat 10 μg MBPC.3/ml): 639 and 664
- optical density (OD) ratio 492/620 nm (×10^3) (C57/BL6 black mice; plate 3, mouse serum 10^-3, coat 0.5 μg MBPC.3/ml): 48 and 49
- optical density (OD) ratio 492/620 nm (×10^3) (C57/BL6 black mice; plate 3, mouse serum 10^-3, coat 1 μg MBPC.3/ml): 50 and 53
- optical density (OD) ratio 492/620 nm (×10^3) (C57/BL6 black mice; plate 3, mouse serum 10^-3, coat 5 μg MBPC.3/ml): 159 and 163
- optical density (OD) ratio 492/620 nm (×10^3) (C57/BL6 black mice; plate 3, mouse serum 10^-3, coat 10 μg MBPC.3/ml): 172 and 168
- optical density (OD) ratio 492/620 nm (×10^3) (C57/BL6 black mice; plate 3, mouse serum 10^-4, coat 0.5 μg MBPC.3/ml): 22 and 21
- optical density (OD) ratio 492/620 nm (×10^3) (C57/BL6 black mice; plate 3, mouse serum 10^-4, coat 1 μg MBPC.3/ml): 22
- optical density (OD) ratio 492/620 nm (×10^3) (C57/BL6 black mice; plate 3, mouse serum 10^-4, coat 5 μg MBPC.3/ml): 83 and 84
- optical density (OD) ratio 492/620 nm (×10^3) (C57/BL6 black mice; plate 3, mouse serum 10^-4, coat 10 μg MBPC.3/ml): 85 and 84
- optical density (OD) ratio 492/620 nm (×10^3) (C57/BL6 black mice; plate 4, mouse serum 10^-2, coat 0.5 μg MBPC.3/ml): 495 and 468
- optical density (OD) ratio 492/620 nm (×10^3) (C57/BL6 black mice; plate 4, mouse serum 10^-2, coat 1 μg MBPC.3/ml): 553 and 439
- optical density (OD) ratio 492/620 nm (×10^3) (C57/BL6 black mice; plate 4, mouse serum 10^-2, coat 5 μg MBPC.3/ml): 1233 and 1336
- optical density (OD) ratio 492/620 nm (×10^3) (C57/BL6 black mice; plate 4, mouse serum 10^-2, coat 10 μg MBPC.3/ml): 1454 and 1340
- optical density (OD) ratio 492/620 nm (×10^3) (C57/BL6 black mice; plate 4, mouse serum 10^-3, coat 0.5 μg MBPC.3/ml): 90 and 95
- optical density (OD) ratio 492/620 nm (×10^3) (C57/BL6 black mice; plate 4, mouse serum 10^-3, coat 1 μg MBPC.3/ml): 83 and 88
- optical density (OD) ratio 492/620 nm (×10^3) (C57/BL6 black mice; plate 4, mouse serum 10^-3, coat 5 μg MBPC.3/ml): 299 and 297
- optical density (OD) ratio 492/620 nm (×10^3) (C57/BL6 black mice; plate 4, mouse serum 10^-3, coat 10 μg MBPC.3/ml): 334 and 318
- optical density (OD) ratio 492/620 nm (×10^3) (C57/BL6 black mice; plate 4, mouse serum 10^-4, coat 0.5 μg MBPC.3/ml): 28
- optical density (OD) ratio 492/620 nm (×10^3) (C57/BL6 black mice; plate 4, mouse serum 10^-4, coat 1 μg MBPC.3/ml): 27 and 21
- optical density (OD) ratio 492/620 nm (×10^3) (C57/BL6 black mice; plate 4, mouse serum 10^-4, coat 5 μg MBPC.3/ml): 124 and 103
- optical density (OD) ratio 492/620 nm (×10^3) (C57/BL6 black mice; plate 4, mouse serum 10^-4, coat 10 μg MBPC.3/ml): 133 and 113
- reactivity of sera from rabbits immunized with the MBPC (ELISA, FIG. 6) (rabbits): did not react against MBPC.1 (except for a weak reactivity of the serum from rabbit A)
- antibody response in rabbits (rabbits): did not induce a significant antibody response
- toxicity to cells (MTT assay) (CEM or C8166 cells): not toxic

Substance: (RKSIHIGPGRAFYT)4 -(K)2 -K-βA-OH (also: four copies on lysine core (K)2-K-βA-OH) [MBPC.5, tetradecapeptide MBPC]
- potency for inhibition of HIV-2 infection, in words (HIV-2): less potent than [GPGRAF]8 -MLC
- reactivity of sera from rabbits immunized with the MBPC (ELISA, FIG. 6) (rabbits): recognized significantly MBPC.2 and V3 Cons
- antibody response in rabbits (rabbits): did invoke such a response
